A protein production outcome set (Wang et al. 2014)

Test: label from the status in PepcDB records

Row | Sequence | protein production
1 | MTFEDPSFWAALLTAATTAGAITILVALVRRNQAKGPDRRAREDAEIFLGLSDGLIVLDDGGRVSALNRAAQRMTGQEGEAAVGKSARRLLPGLESVLEGKDRLASSLGLWCRLPATGREEALASTLGALLSETTGPAGTRTVLVLRDISEQIRLTEVDDWLRVIDGHLLAGTSLGDLANDLCERVARAFGLPLLWIGVPRPEGLLVVGKGGSEAARLSAYPEGRGDEGTQGVAGRTLRSGRAQSDDAGEGWAAPTWAPGVPLGRAYCVGLRARGEVVAVLCLRGHGEAPSPALSRALEALGPRLGEAIVYERGQSLMRLQSAAIAAAANAIVITDGEGRVEWVNEAYHLLSGYERDQIIGTLPAVLAGPSAANPTAIEAWPTLRAGQVWRGEIHETHRDGRTYIVDKTITPIVDASGRLSHLVAVDEDVTARKKAEERIRYLSNYDTLTRLPNRVLFRDRLYQAVVQARRGHGGLAVMFIDLDQFSLVNDTLGHAAGDHLLMTIASRINAAAEEADTVARVGGDEFALIQTALTSADSAASLARRLIDVIRTPVDLGGREVVIGANVGIAIYPQDGTDPDNLMKNADMAMYRAVKSGDDSCCFFSNEMNAEAAVRLSLEEDLRRALDSGDQLFLHYQLQFCIESGRPVGAEALARWTHPTLGAIPPTRFIPVAEDSGLILALGDWVLGTALAEYARWRAAGCGRLTIAVNMSAVQFRQKGLVERVTDLLAQHGVPPEDLELELTESMLMQDADQAVAQLTALSQAGIRLSIDDFGTGYSSLGYLKLFRVDKLKVDQSFVRDVTEDGNDAVIARAIINLGHSLGLEVIAEGVETPEQMAYLRREGCDVVQGYLMAYPEPGETVARRLLALDALSAAPAAVVMSRSD | failed
2 | MAHHHHHHMAITLPKLKYALNALSPHISEETLSFHYNKHHAGYVNKLNGLIKDTPLANKSLTDILKESTGAIFNNAAQIWNHSFYWDSMGPNCGGEPHGEIKEKIQEDFGSFNNFKDQFSNVLCGHFGSGWGWLALNKNNKLVILQTHDAGNPIKENTGIPILTCDVWEHAYYIDYRNDRLSYVKAWWNLVNWNFANENLKNALNK | not failed
3 | MKNYQKMSVAQDARVELHDSLALTGAEVSINHLPAGAGVPFVHSHKQNEEIYGILSGKGFITIDGEKIELQAGDWLRIAPDGKRQISAASDSPIGFLCIQVKAGSLEGYTMTDGVVQLEHHHHHH | not failed
4 | MSLSNVQVNSSQRDEDSFIKGVKDCIPTLLGYLSIGIAAGVIQKTAGLSIAEITLMSLILYAGSGQFIAAGMIATSSSLTAIIITIFFVNLRHILLSAALAPYFRHLSPFRNMLVGSLLTDETFGVAISEAAKKKQISERWMHGLNITAYINWLVANLAGAFLAQWISNPEEFGLGFALPAMFIGILILTMLGRSTIKLDIIVAIIAVVIAVGSSFMLSSSMGVIVATIIASTIGMVVEKWK | failed
5 | MQKLTRINDFNEVLNSRKSVKVFDENYKIPREEMDEIITKATKAPSSVNMQPWRIAVVQSDEMKEKVKESFGFNSRQLTTSSAMLIIFGDLQNYEKAEQIYGDAVEQQLMTEDIKAQLLDWILPYYKNLSREGMKDIVNIDSSLMAMQLMLTAKAHGYDTNPIGGFDKENIADIIGYDSDRYVPVLAIAIGKKAQDAHDSVRLPIDDVREFL | not failed
6 | MTTTIEVGMLGLGTVGSGVVERLTRSAAKIEQTQGIRLHLAAVAVNHLNAPRTVQLPIGTRLTDSLTNVVCDRKIQLVIEVMGTVATAKKAIVAALNQGKAVVTANKDLIATAGPELAALAKKQGCDLFYEASVAGGIPILRTLTDSYVTDNVQAVSGIINGTANYMLSAMATGQSYEQALATAQATGYAEADPTNDVAGIDAAYKLMILSRFAFGQELSLPQIAPTGITHLSASVCRLAAENGWQIKLLAQIQRHGSGLYCRVAPVAVPVDQPLSQINGVQNAVAVQSEAIGTSLYTGPGAGSTATANSVLNDVLVAAKHLINGYRMIRNQKRSVSLTVTRFDQLPQTYLGIGPVAPEAVKYYANEADFSVKTIADDCYQITGLSAVKRKKLRANLPLTLIPIAGTTDWKQVTENSITSPINVAILEHHHHHH | not failed
7 | MYDMVREKTYYFMIVERITIMTEKMTRMTQFVKEEIANAITHGIGAILSIPALIILIIHASKHGTASAVVAFTVYGVSMFLLYLFSTLLHSIHHPKVEKLFTILDHSAIYLLIAGTYTPFLLITLRGPLGWTLLAIIWTLAIGGIIFKIFFVRRFIKASTLCYIIMGWLIIVAIKPLYENLTGHGFSLLLAGGILYSVGAIFFLWEKLPFNHAIWHLFVLGGSAMMFFCVLFYVLPTAS | failed
8 | RKKPVSQSLEFPTRYSPYRPYRCVHQGCFAAFTIQQNLILHYQAVHKSDLPAFSAEVEEE | not failed
9 | MSEPIDILIAGAGIGGLSCALALHQAGIGKVTLLESSSEIRPLGVGINIQPAAVEALAELGLGPALAATAIPTHELRYIDQSGATVWSEPRGVEAGNAYPQYSIHRGELQMILLAAVRERLGQQAVRTGLGVERIEERDGRVLIGARDGHGKPQALGADVLVGADGIHSAVRAHLHPDQRPLSHGGITMWRGVTEFDRFLDGKTMIVANDEHWSRLVAYPISARHAAEGKSLVNWVCMVPSAAVGQLDNEADWNRDGRLEDVLPFFADWDLGWFDIRDLLTRNQLILQYPMVDRDPLPHWGRGRITLLGDAAHLMYPMGANGASQAILDGIELAAALARNADVAAALREYEEARRPTANKIILANREREKEEWAAASRPKTEKSAALEAITGSYRNQVERPRLEHHHHHH | not failed
10 | MDWGTELWDQFEVLERHTQWGLDLLDRYVKFVKERTEVEQAYAKQLRSLVKKYLPKRPAKDDPESKFSQQQSFVQILQEVNDFAGQRELVAENLSVRVCLELTKYSQEMKQERKMHFQEGRRAQQQLENGFKQLENSKRKFERDCREAEKAAQTAERLDQDINATKADVEKAKQQAHLRSHMAEESKNEYAAQLQRFNRDQAHFYFSQMPQIFDKLQDMDERRATRLGAGYGLLSEAELEVVPIIAKCLEGMKVAANAVDPKNDSHVLIELHKSGFARPGDVEFEDFSQPMNRAPSDSSLGTPSDGRPELRGPGRSRTKRWPFGKKNKTVVTEDFSHLPPEQQRKRLQQQLEERSRELQKEVGQREALKKMKDVYEKTPQMGDSASLEPQIAETLSNIERLKLEVQKYEAWLAEAESRVLSNRGDSLSRHARPPDPPASAPPDSSSNSASQDTKESSEEPPSEESQDTPIYTEFDEDFEEEPTSPIGHCVAIYHFEGSSEGTISMAEGEDLSLMEEDKGDGWTRVRRKEGGEGYVPTSYLRVTLN | not failed
11 | MTAAEPYTVELAADVHAYVQPDGGWCLNNAGFVSDGTTTLLVDTAATERRTRALSAAIAAAGVPAPRFVVNTHHHGDHTYGNSHFAPTATIVSHAECRRETLANGRQLHLLWPENDFGDIRIQAADLTYTGHTTVHVGAVDAEVIHPGVAHTVSDSVVWLPHRRVLFTGDLVFEGGTPFILMGSLSGSLRALDVLRQLGAETVVPGHGPVTDPSAFDRTERYLRFVADIAHKSHAAGRTPLEAARETDLGEFAALPESERFVANLHRAYAELDGAPEGAPLDVPAAVRDIAAMNGGRMVACHA | failed
12 | MSLQRVTNCIVVDHDQVLLLQKPRRGWWVAPGGKMEAGESILETVKREYWEETGITVKNPELKGIFSMVIFDEGKIVSEWMLFTFKATEHEGEMLKQSPEGKLEWKKKDEVLELPMAAGDKWIFKHVLHSDRLLYGTFHYTPDFELLSYRLDPEPQMKKKGIITITTDPNSSSVDKLAAALEHHHHHH | not failed
13 | MKVGIIGLGFRLGYLGYVFKAIDSSFDIVGYVDPDPAGLPGLTEKGISAGKAYGSPEELLASEKLDLLMIGSPNHMHLGHIRLGLQAGLKVFCEKPIVTTIAESIELAHLMAKFGHERLMVGLVLRYSPLYKDLRAIQAEGKLGQIVSIEASEHIEPYHGAFFMRDWRRYERYSGSFMLEKCCHDLDLYNGVVGARPERVASFGGRKSFIPANDPAREGINDLELFHRKPSGWMGSDKVFDSDADIIDYQVAIVEYENGVGMNFHTNLNVPDQFRRFAIMGSRGMAEGDFVRGYLDVHEQLTGNKIVENKYAATELSQHYGADEQMASDLLESVRTGLELPVSTLNALEAGILALAMDEARMKKTVVDLRPIWDRFDEALHARAA | failed
14 | MKITVFGATGNVGNRVITEALLRGHEITAVLRNNARANEFDSSVKVVIGHADNVDDVVKWSDGQDLIISATRPPQGLESQLVDTAKALLSGLAQTKVRLLLVGGAASLTVPNSNGMLVVDDTDLVPTAWRDIALACLAQHKLCQENESVDWSYISPPAVIVPGERTGIFRTGSDELLVDEQGQSTISLEDFAIALLDEAEVVKHKRKRFTVAYLEHHHHHH | failed
